Among the data in article PMC7175280 are stoichiometry N values, retold here.

The stoichiometry N is the number of molecules, sites or subunits per partner or assembly.

The target of this assay is Mus musculus inward rectifier K+ (Kir) channel 3.1 - Paraburkholderia xenovorans KirBac1.3 chimera (Mus musculus | Paraburkholderia xenovorans (Burkholderia xenovorans LB400)) (UniProt P63250). Nature of the assay: SEC; HiLoad 16/600 Superdex 200 in 20 mM HEPES pH 7.5, 150 mM KCl, 5 mM DDM, 2 mM DTT, 1 mM EDTA, 0.02% NaN3; protein loaded at ~3 mg/mL; tetramer fractions collected.

In turn, “Mus musculus inward rectifier K+ (Kir) channel 3.1 - Paraburkholderia xenovorans KirBac1.3 chimera (from UniProt P63250 181-371; P63250 181-371)” came in with a stoichiometry N of 4.
